Assay results as given in article PMC4293355 (Developmental cell, 2014).

Molecular target: G-actin (UniProt P68135 1-377)
Assay: fluorescence polarisation

B1: TMR-SpWsp1(VCA) (domain or fragment)
chain: QDGRANLMASIRASGGMDLLKSRKVSASPSVASTKTSNPPVEAPPSNNLMDALASALNQRKTKVAQSDEEDEDDDEWD
modifications: TMR-labeled (position not given)
B1 showed a Kd of roughly 21 nM.
